B1: His6-BacP_(Δ1-115) (domain or fragment, M. xanthus, UniProt Q1D3H2 116-240, looked up)
chain: DVEPGRLPAERPAVVRPTAVTRPTATPARPTIPAARPMPPPPPSRPTPPPPPARPSAPPAVTRPSAPITRPGLGGLGSKPLPPPPPTRVERAEPQAGQAGSAEPPTPVLVGAGAKKKVVVKKKTR
modifications: biotinylated with EZ-Link NHS-PEG4-Biotin for loading on the sensor
notes: bactofilin BacP of Myxococcus xanthus lacking residues 1-115 (the C-terminal extension); no cleavage of the tag is described; also called BacPC; C-terminal fragment of BacP; source: E. coli Rosetta(DE3)pLysS with pIB154, purified (HisTrap HP)
B2: His6-PadC_(Δ1-281) (domain or fragment, M. xanthus, UniProt Q1D3H3 282-489, looked up)
chain: PEPEQRLSGRVTTVLLPLEKLQDESAFKLRPEGDVSGLATDIARLGQLFPVDVRPAGEDRYQLVCGFRRVAALRFLKRDAVQARIHLRLSDEDALVMSLAEAIHATPVGPEVLEAKRDELEAQGRLSAAVRDMLEKALATEDTLAPEGVEEEIDADELAQEVAQRLGAINQDLSLLADVFAALDESRKAELLMQLRYSSELVTYLEGL
modifications: biotinylated with EZ-Link NHS-PEG4-Biotin where it was loaded on the sensor
notes: PadC (MXAN_4634) of Myxococcus xanthus lacking residues 1-281; holds the ParB-like nuclease (ParBC) domain; no cleavage of the tag is described; also called PadCΔN; N-terminally truncated variant of PadC; source: E. coli Rosetta(DE3)pLysS with pMO002, purified (HisTrap HP, MonoQ)

Tests used:
His6-PadC_(Δ1-281) = biological target: B2; assay: BLI; BLItz, streptavidin (SAX) sensors loaded with biotinylated BacPC, PadCΔN as analyte; 25 mM HEPES/KOH pH 7.6, 100 mM KCl, 10 mM MgSO4, 1 mM DTT, 10 µM BSA, 0.01% Tween; conditions: both partners purified
His6-ParA = biological target: T1, His6-ParA (M. xanthus, UniProt Q1CVJ3 1-283); assay: BLI; BLItz, streptavidin (SAX) sensors loaded with biotinylated PadCΔN, ParA as analyte; BLItz binding buffer with 150 mM potassium glutamate, 5% glycerol and 10 mM ATP; conditions: both partners purified
T1 construct: DNA partitioning ATPase ParA of Myxococcus xanthus; Only soluble with ATP, which restricted the analyses to the dimeric form; also called ParA·ATP; purified ParA; source: E. coli Rosetta(DE3)pLysS with pAH17, purified (HisTrap HP) in the presence of magnesium-ATP
T1 sequence (looked up): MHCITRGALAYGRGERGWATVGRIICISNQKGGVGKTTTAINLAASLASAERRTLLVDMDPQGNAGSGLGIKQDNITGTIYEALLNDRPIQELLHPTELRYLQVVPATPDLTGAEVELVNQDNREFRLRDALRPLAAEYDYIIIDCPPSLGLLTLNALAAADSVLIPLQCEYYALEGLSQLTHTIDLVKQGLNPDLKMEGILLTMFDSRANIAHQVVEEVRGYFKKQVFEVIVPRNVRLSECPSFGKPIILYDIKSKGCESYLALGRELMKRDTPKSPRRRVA

Kd (His6-PadC_(Δ1-281))	Kd (His6-ParA)	Binder
340 nM	–	B1
–	900 nM	B2
